The record followed here is patent US20080306007.

The target of series [1] is syndapin I (native, from rat brain lysate or synaptosomes).
The target in series [2] is T1, endophilin I (native, from rat brain lysate or synaptosomes), O35179.
T1 chain: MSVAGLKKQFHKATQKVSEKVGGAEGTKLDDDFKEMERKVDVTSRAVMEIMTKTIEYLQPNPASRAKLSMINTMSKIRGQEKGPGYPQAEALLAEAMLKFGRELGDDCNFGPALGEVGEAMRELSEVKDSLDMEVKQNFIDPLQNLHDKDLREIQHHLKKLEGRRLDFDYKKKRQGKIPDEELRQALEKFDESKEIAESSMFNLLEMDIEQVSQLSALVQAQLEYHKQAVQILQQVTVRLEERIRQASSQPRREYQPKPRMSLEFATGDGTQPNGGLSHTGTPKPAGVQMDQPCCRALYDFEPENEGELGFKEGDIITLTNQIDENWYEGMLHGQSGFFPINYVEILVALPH

Substitutions are numbered along the chain they refer to.

syndapin I (native, from rat brain lysate or synaptosomes), sequence (chain, as listed by the source): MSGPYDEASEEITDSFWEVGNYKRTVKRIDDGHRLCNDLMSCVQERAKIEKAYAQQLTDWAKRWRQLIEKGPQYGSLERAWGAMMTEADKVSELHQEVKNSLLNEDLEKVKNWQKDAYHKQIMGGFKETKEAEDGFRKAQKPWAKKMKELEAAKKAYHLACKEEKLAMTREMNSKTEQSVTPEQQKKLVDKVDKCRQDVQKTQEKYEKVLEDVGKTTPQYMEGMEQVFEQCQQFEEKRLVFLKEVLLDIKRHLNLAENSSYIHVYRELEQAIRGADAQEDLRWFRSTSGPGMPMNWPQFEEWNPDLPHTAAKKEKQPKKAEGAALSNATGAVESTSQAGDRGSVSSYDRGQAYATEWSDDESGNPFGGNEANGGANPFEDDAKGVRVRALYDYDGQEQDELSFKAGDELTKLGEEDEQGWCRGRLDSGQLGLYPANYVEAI

B1: DynI-PB2-GFP (protein)
chain: MGNRGMEDLIPLVNRLQDAFSAIGQNADLDLPQIAVVGGQSAGKSSVLENFVGRDFLPRGSGIVTRRPLVLQLVNSTTEYAEFLHCKGKKFTDFEEVRLEIEAETDRVTGTNKGISPVPINLRVYSPHVLNLTLVDLPGMTKVPVGDQPPDIEFQIRDMLMQFVTKENCLILAVSPANSDLANSDALKIAKEVDPQGQRTIGVITKLDLMDEGTDARDVLENKLLPLRRGYIGVVNRSQKDIDGKKDITAALAAERKFFLSHPSYRHLADRMGTPYLQKVLNQQLTNHIRDTLPGLRNKLQSQLLSIEKEVDEYKNFRPDDPARKTKALLQMVQQFAVDFEKRIEGSGDQIDTYELSGGARINRIFHERFPFELVKMEFDEKELRREISYAIKNIHGIRTGLFTPDLAFEATVKKQVQKLKEPSIKCVDMVVSELTSTIRKCSEKLQQYPRLREEMERIVTTHIREREGRTKEQVMLLIDIELAYMNTNHEDFIGFANAQQRSNQMNKKKTSGNQDEILVIRKGWLTINNIGIMKGGSKEYWFVLTAENLSWYKDDEEKEKKYMLSVDNLKLRDVEKGFMSSKHIFALFNTEQRNVYKDYRQLELACETQEEVDSWKASFLRAGVYPERVGDKEKASETEENGSDSFMHSMDPQLERQVETIRNLVDSYMAIVNKTVRDLMPKTIMHLMINNTKEFIFSELLANLYSCGDQNTLMEESAEQAQRRDEMLRMYHALKEALSIIGDINTTTVSTPMPPPVDDSWLQVQSVPAGEESPTSSPTPQRRAPAVPPARPGSRGPAPGPPPAGSALGGAPPVPSRPGASPDPFGPPPQVPSRPNRAPPGVPSRSGQASPSRPESPRPPFDL
On to B1, for which the “total synaptic recycling pool (FM4-64) in transfected CGNs” value in series [1] was 59.5±4.3% of control for DynI-PB2-GFP.

B2: DynI^dmE-GFP (protein)
chain: B1 chain with E772R, E773R, S774E, S778E
Regarding B2, the “total SV recycling pool (FM4-64) in transfected CGNs” value in series [1] was 64.4±6.2% of control.

B3: DynI-3B-GFP (protein)
chain: B1 chain with E772R, E773R, P793A
In the case of B3, in series [2], the “total synaptic recycling pool (FM4-64) in transfected CGNs” value is 56.8±4.4% for DynI-3B-GFP.

B4: DynI^dmA-GFP (protein)
chain: B1 chain with E772R, E773R, S774A, S778A
For B4, the “total SV recycling pool (FM4-64) in transfected CGNs” value in series [1] is recorded as 28±3.5% of control.
